Where two headings read alike, the source gives them in different places.
How the values were obtained:
[1] = DAT precursor, UV-Vis absorption
Method: Spectroscopy was performed using a Synergy HT plate reader in with sample Corning Costar UV-transparent 96 well plates (Corning 3635). Initially samples were diluted to 1 mg/mL in either IPA or DIW and a dilution curve was made with each step reducing the concentration by half. The concentration chosen for measurement was the most concentrated sample that had the peak of interest entirely below 1.0 absorption units. When an appropriate concentration was found 100 μL of sample was then loaded into each well with samples loaded in triplicate. If the standard deviation between replicates exceeded 0.05 AU the measurement was repeated with fresh samples.

[2] = pyrazoline bound to SilMA, derived from the named DAT
Method: Fluorophores bound to either silk or PEG-DA were generated by dissolving a DAT precursor to a final concentration of 100 μM in water for silk-bound fluorophores and either DIW, IPA or ethyl acetate (EtAc) for PEG-DA-bound fluorophores. These were reacted by exposure to 302 nm light (specs) for 10 minutes under constant stirring. To an opaque black 96-well plate (Corning 3915) was added 3 separate 100 μL aliquots of fluorophore solution. These were measured by a Molecular Devices SpectraMax M2 plate reader, exciting at either 300, 365 or 405 nm and recording spectra from 25 nm […] the excitation wavelength down to 650 nm with a 5 nm resolution.

[3] = Patterned fluorescent films (SilMA or SF/PEG-DA); assay type: physicochemical
Method: Multispectral imaging was performed with a Nuance FX multispectral imaging system with a Canon macro lens and illuminated by 365 nm light. Exposure times were varied by sample and were selected by automatic exposure timing in the acquisition software. Images were processed using Nuance software and spectral elements were picked by hand from at least 20 sample locations. Raw processed spectra had large discontinuities introduced by the internal monochromator, which were removed with a custom algorithm.
A glass coverslip (22×22 mm) was placed onto the vacuum chuck of a Laurell WS-650 spin coater. Onto the surface was pipetted 100 μL of silk solution (7.0% w/w silk fibroin, 0.7% w/w polyethylene glycol diacrylate), which was manually spread to cover the entire surface. […] The sample was then water vapor annealed by being placed in a Memmert UN 30 Plus humidity-controlled oven at 45 C and 90% relative humidity. A timer was started once the oven had reached 90% humidity after then drop due to sample addition and allowed to sit in the oven for 5.0 minutes. Once removed the sample was loaded onto the vacuum chuck again and 30 μL of DAT solution (5 mg/mL DAT in isopropyl alcohol) was dropped onto the surface. A combined spreading/evaporation program was run with a single 20 second phase (4000 RPM, 250 RPM/sec). The sample was then covered by a photomask and exposed to 302 nm UV light (Labortechnik UVLMS-38 8 Watt UV multiwavelength lamp) to induce the photoclick reaction. If a multi-emitter film was to be fabricated, then a PDMS isolation layer must be applied if the lower layer is composed of SF/PEG-DA. To form the isolation layer, Sylgard 184 monomer was mixed with curing agent in a 10:1 ratio and 500 μL was applied to the glass slide by spin coating (5 sec, 500 RPM spread, 30 sec 5000 RPM thinning, 500 RPM/sec acceleration). This was cured by heating the slide on a 80 C hotplate for 30 minutes. The subsequent layer could then be applied in an identical manner to the first. If SilMA was used as the lower layer, the isolation layer is not needed and the second layer can be applied directly.
Films were fabricated with a spin-coating process, where either SilMA or a mixture of SF and PEGDA were dropped onto glass coverslips and spun to produce uniform films. Afterwards the films were water vapor annealed to recrystallize them and lock in the position of the polymer(s). Next a solution of the DAT dye in IPA or DI water was drop cast onto the surface, then spun to remove excess solution. This film was then exposed to 302 nm UV light through a quartz photomask or steel shadow mask for 30 seconds. The DAT impregnated films reacted promptly and attained 60% of their full fluorescent brightness in 30 seconds and their maximum brightness in less than 5 minutes (FIG. 21A,B). […]

[4] = literature values of related compounds; cited from earlier work
[5] = Fluorescence titration (pH dependence, pKa) of PEG-DA-bound pyrazolines; assay type: physicochemical
Method: A 100 mL beaker was placed on a stir plate and filled with 50 mL of either deionized water or isopropyl alcohol and a magnetic stirrer. Fluorescent pyrazoline bound to PEG was added to a final concentration of 1 mg/mL and stirred until homogenous. An Ocean Optics SR fiber spectrometer was attached to a UV-Vis optical fiber (200-800 nm, 200 μm core diameter) and the fiber was mounted such that it was normal to the surface of the liquid. A 365 nm LED was placed at such that it illuminated the beaker from the side, perpendicular to the orientation of the fiber. If deionized water was used as the solvent, a pH probe was immersed in the liquid as well. The LED was switched on and the spectrometer exposure time was adjusted until the fluorescent peak reached at least 1000 counts or 3 seconds of exposure, whichever occurred first. During capture 5 exposures were averaged and smoothed by a 9-point moving average. […]
To determine the exact pH dependance of the fluorescence transition, fluorescence was monitored during an acid-base titration with a custom optical set-up (FIG. 12). […]
Resulting titrations generally produced either a sigmoidal curve with high and low pH stable regimes (FIG. 14A) or a static, pH independent fluorescence (FIG. 14B). […] The pKa values estimated by fluorescence are generally within their estimated pKa windows, with the exception of the amino derivatives (FIG. 14D). […]

| SMILES | Excitation λmax ([1]; peak 1) | Excitation λmax ([1]; peak 2) | Excitation λmax ([1]; peak 3) | Emission λmax ([2]; pH 3) | Emission λmax ([2]; pH 10) | Excitation λmax ([2]; pH 10) | fluorescence of resulting pyrazoline in film ([3]; PEG-DA/SF films) | fluorescence of resulting pyrazoline in film ([3]; SilMA films) | Excitation λmax ([2]; pH 3) | pKa [4] | pH at which highly emissive state is centered [5] |
| --- | --- | --- | --- | --- | --- | --- | --- | --- | --- | --- | --- |
| Oc1ccc(-c2nnn(-c3ccccc3)n2)cc1 [DAT-10, 5-(4-hydroxyphenyl)-2-phenyl-2H-tetrazole] | 253 nm | 281 nm | 300 nm | 435 nm | 435 nm | 355 nm | visible | nearly completely quenched |  |  |  |
| CCOC(=O)c1ccc(-n2nnc(-c3ccc(C(=O)O)cc3)n2)cc1 [DAT-2, 2-(4-(ethoxycarbonyl)-phenyl)-5-(4-carboxyphenyl)-2H-tetrazole] | 265 nm |  |  | 460 nm | 455 nm | 350 nm |  |  | 370 nm |  |  |
| O=C(O)c1ccc(-c2nnn(-c3ccc(S(=O)(=O)O)cc3)n2)cc1 [DAT-3, 2-(4-sulfophenyl)-5-(4-carboxyphenyl)-2H-tetrazole] | 279 nm |  |  | 490 nm | 460 nm | 375 nm |  |  | 385 nm |  |  |
| O=C(O)c1ccc(-c2nnn(-c3ccc(O)cc3)n2)cc1 [DAT-4, 2-(4-hydroxyphenyl)-5-(4-carboxyphenyl)-2H-tetrazole] | 296 nm |  |  | 530 nm | 530 nm | 360 nm |  |  | 335 nm |  |  |
| Nc1ccc(-c2nnn(-c3ccccc3)n2)cc1 [DAT-8, 5-(4-aminophenyl)-2-phenyl-2H-tetrazole] | 294 nm |  |  |  |  |  |  |  |  |  |  |
| OB(O)O [boric acid] |  |  |  |  |  |  |  |  |  | 9.15 |  |
| O=[N+]([O-])c1ccc(-c2nnn(-c3ccccc3)n2)cc1 [DAT-6, 5-(4-nitrophenyl)-2-phenyl-2H-tetrazole] | 296 nm |  |  |  |  |  |  |  |  |  |  |
| O=[N+]([O-])c1cccc(-c2nnn(-c3ccccc3)n2)c1 [DAT-7, 5-(3-nitrophenyl)-2-phenyl-2H-tetrazole] | 266 nm |  |  |  |  |  |  |  |  |  |  |
| Nc1cccc(-c2nnn(-c3ccccc3)n2)c1 [DAT-9, 5-(3-aminophenyl)-2-phenyl-2H-tetrazole] | 271 nm |  |  | 455 nm | 460 nm | 375 nm | visible | nearly completely quenched | 365 nm |  |  |
| O=C(O)c1ccc(-c2nnn(-c3ccc(B(O)O)cc3)n2)cc1 [DAT-5, 2-(4-boronophenyl)-5-(4-carboxyphenyl)-2H-tetrazole] | 285 nm |  |  | 505 nm | 475 nm | 380 nm |  |  | 370 nm |  | 6 |

Source: patent US20260124324A1, “PHOTOCLICK CHEMISTRY OF SILK FOR TEMPORARY UV TATTOOS” (Trustees of Tufts College, priority 2023, published 2026)
